According to US20040014055A1:

Key:
[1] = molecular target: HER1/2 VA (Homo sapiens (Human)) (UniProt P00533)
[2] = molecular target: chimera EGF-R/ERBB2 (HER 1/2) (Homo sapiens (Human)) (UniProt P00533)

basolateral localisation of the receptor on MDCK transfectants (biotinylation of the cell surface, autoradiography) (% basolateral) [1]: 53 | basolateral localisation of the receptor on MDCK transfectants (biotinylation of the cell surface, autoradiography) (% basolateral) [2]: 83
Substance: Erbin of the MDCK cells
